According to the supplement of paper PMC9170038:

System: MS2 coat protein
Assay: apparent KD of MS2 coat protein; designed switch direction (-1 OFF switch, 1 ON switch): -1; higher = weaker reporter binding
Summary of the method: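 SNAP-549-labelled MS2 coat protein was titrated, doubling from 0.7 or 1.5 nM to 3 µM, over designed RNA switches transcribed on Illumina chips by stalled E. coli RNA polymerase. Runs were done without input, with 200 uM small-molecule ligand, or with an oligonucleotide input. Apparent KD is the per-design median over clusters of curve-fitted normalised fluorescence.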

[1] = input ligand: microRNA oligo, concentration not stated
[2] = Eterna round: R95, input ligand: microRNA oligo, concentration not stated
[3] = Eterna round: R95, input ligand: FMN 200 uM
[4] = Eterna round: R95, input ligand: none

Sequence | apparent KD of MS2 coat protein [1] [nM] | apparent KD of MS2 coat protein (input ligand: FMN 200 uM) [nM] | apparent KD of MS2 coat protein (input ligand: none) [nM] | apparent KD of MS2 coat protein [2] [nM] | other results
AGAUGCUCGAGUCGACAUGAGGAUCACCCAUGUACAGUUAGUGAGGAUAUCUGAGACACAUAGUAGGAGAAGGCGCGAACGUGA [Ex NG3 #14] (Eterna round: R96, puzzle: Exclusion NG 3) | 58.6 |  |  |  | 
CUCAUGUGAGGAUAUCAGUAGUAAAAAAAUAAAAUUACUACUGAGAAGGCACAUGAGGAUCACCCAUGUGCCAA [EX4 337: Super Stable 37] (Eterna round: R96, puzzle: Exclusion 4) | 12.8 |  |  |  | 
UAUACCACAGUUAGGAUAUUCUAAGUAGUAGCUAAGAAGAAGGAACAUGAGGAUCACCCAUGUGGAGCCAGCGU [Eternabot (L1) Solution 99] (Eterna round: R97, puzzle: Brourd's mod of Exclusion 4) |  | 45.3 | 18.1 |  | 
GGGCGGGCAGGAUAUACAUGAGGAUCACCCAUGUAUGUCCAAAGACAUACAUUCUUAUGUAGAAGGGCCCGCCC [Ex 4] (Eterna round: R97, puzzle: Exclusion 3) |  | 142 | 26.6 |  | 
UUUAAUGGAAUUAAGAUCACAUGAGGAUCACCCAUGUAUAUAUAGGAUAUCAGCUCGAUUAGAGCUGAGAAGGAUAUAUACAUA [ExNG3/6-B1] (Eterna round: R96, puzzle: Exclusion NG 3) | 199 | 31.6 | 91.6 |  | 
AAACAGCAAGGAUAUACGGGCAGUGCUUAUCAUAUCAUACAACAUGAGGAUCACCCAUGUAGAAGGUGCAACAA [Ex2 #1] (Eterna round: R97, puzzle: Exclusion 2) |  | 108 | 39.1 |  | 
UUUUCUUUUGUGAGGAUAUACUUGUUUUUUUUUUUGUAGAAGGCACAUGAGGAUCACCCAUGUUUUCUUUUCUG [JR_BME4_Sub026] (puzzle: Brourd's mod of Exclusion 4) |  |  |  | 20.6 | 
UAUUAUCAAGCAAGAUCCCACAUGAGGAUCACCCAUGUGCUCGUCUUAUUUCCGGAAUUAUUGGGCUCUCGUCUAAU [JR_STOV1_Sub093] (Eterna round: R97, puzzle: Sensor, turn-off variant 1) |  | 90.1 | 78.2 |  | 
GCCAGUUUUGUGAGGAUAUCGUGCCGUUAGCGGCAUGAGAAGGCACAUGAGGAUCACCCAUGUGUGCAUCCGAG [Eternabot (L1) Solution 91] (Eterna round: R97, puzzle: Brourd's mod of Exclusion 4) |  | 157 | 28.4 |  | 
GUAGAGUAAGGAUAUGCUGAAUAGGAUAGAAUGGUUAGAAAGCAGAAGGUACAUGAGGAUCACCCAUGUAAUGU [Excluse me!!!! 18 - Jieux - Exclusion 4] (puzzle: Exclusion 4) |  |  |  | 20 | 
CAUUUGUAAGGAUAUGCACCGAUCUCCGAAAGGAGAUCGGUGCAGAAGGUACAUGAGGAUCACCCAUGUUGAUG [Mod of Brourd 11 - Jieux - Exclusion 4] (Eterna round: R97, puzzle: Exclusion 4) |  | 218 | 33.6 |  | 
GGCAUGCAAGGAUAUACUUGAAGUGAUGUUCGAUAAAGUCUACUUGAGGAUCACCCAAGUAGAAGGUGCAUGCC [Exclusion 2 (Mod5.1 JL EX2 4.74 Vienna UCT mod of Mamaed)] (Eterna round: R97, puzzle: Exclusion 2) |  | 108 | 198 |  | 
CUCCCUCGGGUUAGGAUAUGCUACUGGCUUCAGAUGCAGAAGGAACAUGAGGAUCACCCAUGUACCAAAUAAAA [BmEX4 B.15] (Eterna round: R97, puzzle: Brourd's mod of Exclusion 4) |  | 35 | 14.5 |  | 
GCUUCUGGGCAAGGAUAUCCUGCGCUGUUCUGGUUCGUGUCUGUCACAUGAGGAUCACCCAUGUGGGAGAAGGUGCCUGUGGUG [Design 69] (Eterna round: R96, puzzle: Exclusion NG 2) | 11.3 | 18.8 | 19.5 |  | 
CACCGUUAACUAGGAUAUAGUACAUGAGGAUCACCCAUGUAAUAAAUGAGAAUUUCGGAUGUAUGCUAGAAGGAGUAAAUCGGC [Ostricism 48 - Jieux - Exclusion NG 2] (Eterna round: R96, puzzle: Exclusion NG 2) | 45.5 |  |  |  | 
GCUCGUGGGCAAGGAUAUCCUACGCUGUUCUGGUUCGUGUCUGUCACAUGAGGAUCACCCAUGUGGGAGAAGGUGCACCAGGGU [Design 51] (Eterna round: R96, puzzle: Exclusion NG 2) | 9.67 | 10.8 | 14 |  | 
GAGGACUGAGGAUAUGCGUUGGUACCUCGUAGUAAGCAAAGACAUGAGGAUCACCCAUGUAGAAGGCGGAAAAG [Xegeinenxe] (puzzle: Exclusion 2) |  |  |  | 58.6 | apparent KD of MS2 coat protein [3]: 150 nM; apparent KD of MS2 coat protein [4]: 52.6 nM
UCGCUCCGUGUAGGAUAUCGCCGUACUAUGCGGCGAGAAGGACAUGAGGAUCACCCAUGUAUGUUAUUAUCACGCGUGGCGCAA [Design 61] (Eterna round: R96, puzzle: Exclusion NG 1) | 13.4 | 17.9 | 16.2 |  | 

Sequence | apparent KD of MS2 coat protein [1] [nM] | apparent KD of MS2 coat protein (input ligand: FMN 200 uM) [nM] | apparent KD of MS2 coat protein (input ligand: none) [nM] | apparent KD of MS2 coat protein [2] [nM] | other results
UAGUGUUACACAGGAUAUCGCCUCUUAUUACAUGAGGAUCACCCAUGUUUAGUUAGUUACAUGUACGAGAAGGGUGUUGUAGUU [JR_ExcNG2_Sub039] (Eterna round: R96, puzzle: Exclusion NG 2) | 681 | 787 | 1010 |  | 
GGUUGGCGAGGAUAUACAUGAGGAUCACCCAUGUGAGAGAAGAAAGUGAGAACGAAAAGUAGAAGGCGCUGACG [salish99_ex3_r3_060] (puzzle: Exclusion 3) |  |  |  | 43.8 | apparent KD of MS2 coat protein [3]: 2.08 nM; apparent KD of MS2 coat protein [4]: 90.2 nM
UUGUUAUAUGUAGGAUAUGCAUAUUAUUAUUGUGCAGAAGGACAUGAGGAUCACCCAUGUAUAUUAUUAUUAUAUAUUAUAUAU [Title] (Eterna round: R96, puzzle: Exclusion NG 1) | 26.1 |  |  |  | 
GGUCCUGAUGAUUUCCUAUACAUGAGGAUCACCCAUGUAUGUGUAUUUUGUUUUUCGCUUUUUGGUCGUCAAUAAUA [Mod-Hoo-honey-2] (Eterna round: R97, puzzle: Sensor, turn-off variant 1) |  | 32.6 | 33.4 |  | 
GCCAGAGCAGGAUAUUCAGUAUCACACAUGAGGAUCACCCAUGUCCAGCGAAAGCUGGAGGGAGAAGGGCUCUGGC [Fiskers Ex 5 - 13] (puzzle: Exclusion 5) |  |  |  | 108 | apparent KD of MS2 coat protein [3]: 40.8 nM; apparent KD of MS2 coat protein [4]: 298 nM
AAAAAGCGAGGAUAUACAGGAAAAGAAAAGAAAAGAAAAGCACAUGAGGAUCACCCAUGUAGAAGGCGCGAAAA [Exclusion 2 #3] (puzzle: Exclusion 2) |  |  |  | 24.7 | apparent KD of MS2 coat protein [3]: 26.1 nM; apparent KD of MS2 coat protein [4]: 20.8 nM
AGCAUGUGAGGAUAUGCGAAGGGAAGGAGAGGGAAAGAGAAGCAGAAGGCACAUGAGGAUCACCCAUGUAAGGG [AK-MS2ROC-r4-exclusion4-8.1] (Eterna round: R97, puzzle: Exclusion 4) |  | 63.9 | 969 |  | 
GUCCUGAGCGUUAGGAUAUUCACAGUGGACUACUGGAAGAAGGGACAUGAGGAUCACCCAUGUUCGAUACUGGG [Eternabot (L1) Solution 64] (Eterna round: R97, puzzle: Brourd's mod of Exclusion 4) |  | 72.2 | 47.2 |  | 
ACAGUUCUGCAAGGAUAUCGUUCUAGUUUAGUACGAGAAGGUGCUUUAGUUUUUUCUUUGUGUUGACAUGAGGAUCACCCAUGU [JR_ExcNG1_Sub054] (Eterna round: R96, puzzle: Exclusion NG 1) | 17.5 |  |  |  | 
GUCAGCUCGUGAGGAUAUACAUGCGUGCUUCGGCACGAAUUUAAGAUCACAUGAGGAUCACCCAUGUAGAAGGUACGAGCUGAU [ENG2/3-C2] (Eterna round: R96, puzzle: Exclusion NG 2) | 320 | 590 | 387 |  | 
AAAAAGACAGGAUAUACAUGAGGAUCACCCAUGUGAAACAAAAUAAAAUAAAAUAAAAGUAGAAGGGUCAAAAA [Exclusion 3 #2] (puzzle: Exclusion 3) |  |  |  | 31.9 | apparent KD of MS2 coat protein [3]: 33.8 nM; apparent KD of MS2 coat protein [4]: 31.7 nM
CGAUGUUAUGUCAGGAUAUGCGUUGCGAAAGCAAUGUAGAAGGGACAUGAGGAUCACCCAUGUGCUAACCAUCG [Omei A 10] (puzzle: Brourd's mod of Exclusion 4) |  |  |  | 17.2 | 
AGUCGGCGAGGAUAUACAUGAGGAUCACCCAUGUGGAAUCCUAGACCUGUAGGUCCAUGUAGAAGGCGCUGACA [Exclusion 3 - Was a mod at one point v.2] (puzzle: Exclusion 3) |  |  |  | 212 | apparent KD of MS2 coat protein [3]: 32.2 nM; apparent KD of MS2 coat protein [4]: 192 nM
UCGUGUGCGUAGGAUAUCGGUAUGAAGGGAGAAUGAGAAGGGCGGACAUGAGGAUCACCCAUGUGUGCCGGAAA [EX6 B.4] (Eterna round: R97, puzzle: Exclusion 6) |  | 43.3 | 18 |  | 
CUGAUGUCAGGAUAUCAGAAAAGGUGCGAGGACGCACCAAAUGAGAAGGGACAUGAGGAUCACCCAUGUAAAAC [Inbeenen] (puzzle: Exclusion 4) |  |  |  | 19.2 | 
AAAUAGGCAGGAUAUACAUGAGGAUCACCCAUGUGCCUAUGAAAGGUAAUUUUGAAAGGUAGAAGGGCCUAAAA [ChP 13.04.2015 #4] (puzzle: Exclusion 3) |  |  |  | 10.1 | 
AGAGAGUCAGGAUAUCGGAGGGCGAGGAGAGGAGAGAGAGACGAGAAGGGACAUGAGGAUCACCCAUGUAGGUG [JR_Exclusion4)Sub018] (puzzle: Exclusion 4) |  |  |  | 268 | apparent KD of MS2 coat protein [3]: 197 nM; apparent KD of MS2 coat protein [4]: 400 nM
